Publication PMC5599796, “Structural insights into transcription initiation by yeast RNA polymerase I” (The EMBO Journal, 2017)

T1: A135 (S. cerevisiae (endogenous in strain …, UniProt P22138 1-1203))
T1 construct: A135, second largest subunit of yeast RNA polymerase I; Stood in the assay as a subunit of Pol I within the PIC; also called second largest subunit of Pol I; source: purified from S. cerevisiae strain SC1613 as a subunit of Pol I
T1 sequence (looked up): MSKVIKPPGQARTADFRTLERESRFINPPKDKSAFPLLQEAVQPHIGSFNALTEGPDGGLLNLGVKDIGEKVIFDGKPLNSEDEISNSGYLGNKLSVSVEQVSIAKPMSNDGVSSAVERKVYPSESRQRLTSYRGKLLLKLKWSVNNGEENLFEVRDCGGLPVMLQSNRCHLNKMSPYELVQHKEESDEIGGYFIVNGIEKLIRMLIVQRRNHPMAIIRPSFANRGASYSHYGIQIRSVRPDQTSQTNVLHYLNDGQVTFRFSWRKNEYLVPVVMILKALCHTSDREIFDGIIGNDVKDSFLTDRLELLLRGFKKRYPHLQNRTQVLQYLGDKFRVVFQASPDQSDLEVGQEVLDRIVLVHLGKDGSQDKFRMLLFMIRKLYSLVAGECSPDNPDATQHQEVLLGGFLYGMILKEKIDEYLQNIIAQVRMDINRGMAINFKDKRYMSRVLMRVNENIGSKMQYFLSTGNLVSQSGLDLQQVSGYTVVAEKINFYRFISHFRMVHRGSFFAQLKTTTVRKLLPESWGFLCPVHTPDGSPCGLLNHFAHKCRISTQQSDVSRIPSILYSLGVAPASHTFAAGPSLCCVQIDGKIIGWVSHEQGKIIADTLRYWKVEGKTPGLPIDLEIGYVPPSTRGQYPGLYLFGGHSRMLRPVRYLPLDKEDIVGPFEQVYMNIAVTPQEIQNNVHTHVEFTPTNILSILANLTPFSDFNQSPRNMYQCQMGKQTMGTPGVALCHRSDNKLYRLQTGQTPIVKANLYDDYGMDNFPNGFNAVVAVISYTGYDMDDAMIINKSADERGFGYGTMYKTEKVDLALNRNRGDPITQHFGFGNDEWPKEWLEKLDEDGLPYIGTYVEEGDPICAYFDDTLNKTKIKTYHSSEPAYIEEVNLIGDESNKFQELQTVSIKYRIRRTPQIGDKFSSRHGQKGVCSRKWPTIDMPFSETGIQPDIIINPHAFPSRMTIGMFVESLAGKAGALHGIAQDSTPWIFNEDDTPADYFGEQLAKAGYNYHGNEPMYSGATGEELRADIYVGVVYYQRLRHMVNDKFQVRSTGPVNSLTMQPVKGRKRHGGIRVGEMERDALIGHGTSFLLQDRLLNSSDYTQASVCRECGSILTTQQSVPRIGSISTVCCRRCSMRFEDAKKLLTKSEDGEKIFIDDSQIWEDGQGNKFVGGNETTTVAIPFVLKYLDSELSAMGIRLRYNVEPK

T2: Rrn7 (yeast, UniProt P40992 1-514)
T2 construct: Rrn7, TFIIB-like subunit of yeast Core Factor; Stood in the assay as a subunit of CF within the Pol I PIC; also called CF subunit Rrn7; TFIIB-related subunit Rrn7; source: E. coli BL21(DE3)Star pRARE, co-expressed as Core Factor, purified
T2 sequence: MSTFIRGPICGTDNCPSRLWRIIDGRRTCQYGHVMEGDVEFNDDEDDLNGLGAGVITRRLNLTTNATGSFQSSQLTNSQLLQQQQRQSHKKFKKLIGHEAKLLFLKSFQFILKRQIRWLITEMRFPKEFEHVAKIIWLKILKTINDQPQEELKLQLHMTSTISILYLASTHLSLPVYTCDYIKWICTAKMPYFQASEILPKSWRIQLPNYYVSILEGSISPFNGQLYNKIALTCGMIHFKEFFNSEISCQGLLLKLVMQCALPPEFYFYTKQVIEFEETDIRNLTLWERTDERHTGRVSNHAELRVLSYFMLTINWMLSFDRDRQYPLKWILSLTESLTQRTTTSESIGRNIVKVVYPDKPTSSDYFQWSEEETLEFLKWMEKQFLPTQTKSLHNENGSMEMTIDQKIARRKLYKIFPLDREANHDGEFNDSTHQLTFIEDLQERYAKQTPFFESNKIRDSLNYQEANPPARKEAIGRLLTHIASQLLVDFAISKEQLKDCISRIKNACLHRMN

B1: Rrn11 (natural protein, yeast)
chain: MFEVPITLTNRKFAQRRKLKYQYINYISRRFDRISKKSTTTDSLPTPENSAAENNDEEEGQNSEAGTYRRSVLQQKKRRRERHWRSVVGEIYSTTESETDSQEEETEEGGEHDTGIDKEDSDEERKFWKKYEKPEKSFEIWRTVSSQNKQPINKQKMTYHNFKKIEKIPLRKMEIPLLHCTKENKLYFQSISRGLEPLKTSTSEVRNYRTRHIVTLTDLLHLNVSRHNWSLAYKIFATLIRIPGVQIKSLWGIGVEILDNLSNSSSGLDFLQWMCQIYSSKSRFVQNINYRSIVPPFQTGSRTHTAKFAITYLWSSLINCQKSMEPSSNIIDKPFDTENDLLQELIDKISEWVLTPPFMEDAEVWFIYASCHLLKADTLSRQFVNDNKNNDLIGLDRDIKINQVIKHIHYVRTFLKICLDKGGFAVPSRLIENQLKSFESRLYGEAQDIQERDVANVYDSIDNSSVENSFGDVYETNAEFLDTQLMDLSPEDNGLDEMHYSDEDSSE
notes: Rrn11, subunit of yeast Core Factor; Stood in the assay as a subunit of CF within the Pol I PIC; also called CF subunit Rrn11; source: E. coli BL21(DE3)Star pRARE, co-expressed as Core Factor, purified
B2: Rpb12 (natural protein, UniProt P40422 1-70, looked up)
chain: MSREGFQIPTNLDAAAAGTSQARTATLKYICAECSSKLSLSRTDAVRCKDCGHRILLKARTKRLVQFEAR
notes: Rpb12, subunit of yeast RNA polymerase I; Stood in the assay as a subunit of Pol I within the PIC; source: purified from S. cerevisiae strain SC1613 as a subunit of Pol I

Legend:
A135 = molecular target: T1, A135; test: cryo-EM structure; Pol I (1.5 uM) and Rrn3 (3 uM) mixed 5 h at 4°C, then 70-bp transcription scaffold (-50 to +20, 15-nt mismatch, 10-nt RNA) 1 h, then CF (1.5 uM); dialysed from 300 to 100 mM potassium acetate, 50 mM HEPES-NaOH pH 7.5, 5 mM magnesium acetate, 10 mM DTT; 38,589 particles, 4.4 Å; conditions: both partners purified
Rrn7 = molecular target: T2, Rrn7; test: cross-linking; purified Pol I PIC (50 ug, 1 mg/ml) with H12/D12 DSS at 2 and 5 mM, 30 min at 37°C; LC-MS/MS, xQuest, LD score at least 23; conditions: both partners purified

| Binder | binding result (A135) | binding result (Rrn7) |
| --- | --- | --- |
| B1 | binds | – |
| B2 | – | binds |
